This note sets out measurements from patent publication US20040092720A1 (US Dept. of Health and Human Services, published 2004).

B1: Peptide E61 (peptide)
peptide: KDGPEFTFTTPKFAQGEIEAIVVP
B2: Peptide E50 (peptide)
peptide: CYLITVTPVYADGPGSPESIKAYL
B3: Peptide E49 (peptide)
peptide: YLRGNLAESKCYLITVTPVYADGP
B4: Peptide E66 (peptide)
peptide: IWPNVPDPSKSHIAQWSPHTPPRH
B5: Peptide E54 (peptide)
peptide: GKNEAVLEWDQLPVDVQNGFIRNY
B6: Peptide E60 (peptide)
peptide: RMAAYTDEGGKDGPEFTFTTPKFA
B7: Peptide E57 (peptide)
peptide: IIGNETAVNVDSSHTEYTLSSLTS
B8: Peptide E55 (peptide)
peptide: QLPVDVQNGFIRNYTIFYRTIIGN
B9: Peptide E64 (peptide)
peptide: LTTLLGVLFCFNKRDLIKKHIWPN
B10: Peptide E53 (peptide)
peptide: KGPTVRTKKVGKNEAVLEWDQLPV
B11: Peptide E62 (peptide)
peptide: PKFAQGEIEAIVVPVCLAFLLTTL
B12: Peptide E42 (peptide)
peptide: AAVLTIPACDFQATHPVMDLKAFP
B13: Peptide E58 (peptide)
peptide: DSSHTEYTLSSLTSDTLYMVRMAA
B14: Peptide E63 (peptide)
peptide: IVVPVCLAFLLTTLLGVLFCFNKR
B15: Peptide E43 (peptide)
peptide: FQATHPVMDLKAFPKDNMLWVEWT
B16: Peptide E48 (peptide)
peptide: QQEDGTVHRTYLRGNLAESKCYLI
B17: Peptide E65 (peptide)
peptide: FNKRDLIKKHIWPNVPDPSKSHIA
B18: Peptide E51 (peptide)
peptide: ADGPGSPESIKAYLKQAPPSKGPT
B19: Peptide E45 (peptide)
peptide: VEWTTPRESVKKYILEWCVLSDKA
B20: Peptide E67 (peptide)
peptide: SHIAQWSPHTPPRHNFNSKDQMYS
B21: Peptide E52 (peptide)
peptide: KAYLKQAPPSKGPTVRTKKVGKNE
B22: Peptide E44 (peptide)
peptide: KAFPKDNMLWVEWTTPRESVKKYI
B23: Peptide E46 (peptide)
peptide: KKYILEWCVLSDKAPCITDWQQED
B24: Peptide E56 (peptide)
peptide: IRNYTIFYRTIIGNETAVNVDSSH

The experiment has as its target T1, recombinant human IL-6 (human, UniProt P05231 30-212, labeled with radioactive iodine).
T1 construct: Labeled probe in solution, added to wells that carry the synthetic peptides; also called IL-6 ligand; Interleukin-6
Kind of experiment: radioiodinated IL-6 on peptide array.
Regarding B1, the Counts/minute bound amounted to 1390 counts/minute.
The same measure for B2: 1260 counts/minute.
As for B3, the figure is 1540 counts/minute; as for B4, 1200 counts/minute; as for B5, 1310 counts/minute.
On to B6, for which the Counts/minute bound came out at 1450 counts/minute.
The same measure for B7: 1230 counts/minute; for B8: 4360 counts/minute.
As for B9, the figure is 4500 counts/minute; as for B10, 1640 counts/minute; as for B11, 2790 counts/minute.
The same measure for B12: 1120 counts/minute; for B13: 1350 counts/minute; for B14: 4520 counts/minute.
B15: the Counts/minute bound stood at 1300 counts/minute.
As for B16, the figure is 1080 counts/minute; as for B17, 5740 counts/minute; as for B18, 1190 counts/minute.
As to B19, the Counts/minute bound was 1390 counts/minute.
As for B20, the figure is 1200 counts/minute; as for B21, 1820 counts/minute; as for B22, 1180 counts/minute.
As to B23, the Counts/minute bound is 1710 counts/minute.
The same measure for B24: 1640 counts/minute.
